From the supplement of paper PMC10567573

B1: S100A14 (parent)
chain: KIANLGSCNDSKLEFRSFWELIGE

Variants of: B1
Assay: protein stability index of a GFP-peptide fusion (GPS, HEK-293T) (PSI 1-6); higher = more stable
Settings: c terminus: a fixed tail appended
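Note: lentivirally expressed fusions sorted by FACS into six bins by GFP to DsRed ratio, PSI derived from sequencing read proportions per bin multiplied by bin number.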

Protein stability index: each site, then its substitutions
S7: E 1.87 | F 2.13 | G 1.62 | H 2.25 | I 1.89 | K 1.44 | L 1.79 | M 1.62 | N 2.32 | P 2.5 | Q 1.68 | R 2.03 | T 1.71 | V 2.58 | W 1.89 | Y 1.83
C8: A 1.77 | D 2.63 | E 1.97 | F 1.56 | G 2.24 | H 1.22 | I 3.2 | K 1.55 | L 1.49 | M 1.51 | N 1.68 | P 1.79 | Q 1.68 | R 2.07 | S 1.99 | T 1.76 | V 2.08 | W 1.12
N9: A 2.06 | C 1.75 | D 1.59 | E 2.19 | F 1.86 | G 2.22 | H 1.8 | I 1.69 | K 2.23 | M 1.97 | P 1.98 | Q 1.77 | R 1.47 | S 1.08 | T 1.56 | V 2.01 | W 1.83 | Y 1.91
D10: A 1.66 | C 1.95 | E 2.21 | F 1.92 | G 2.84 | H 2.31 | I 1.72 | K 1.98 | L 2.55 | M 2.85 | N 2.39 | P 1.64 | Q 1.7 | R 1.74 | S 2.4 | T 1.95 | V 2.32 | W 3.28 | Y 1.63
S11: A 2.38 | C 2.62 | D 1.89 | E 1.68 | F 2.39 | G 1.53 | H 1.62 | I 1.75 | K 1.69 | L 1.52 | M 1.4 | N 2.21 | P 2.81 | Q 2.08 | R 2 | T 1.56 | V 2.42 | W 1.18 | Y 1.59
K12: A 2.02 | C 2.01 | D 2.24 | E 3.21 | F 2.76 | G 1.59 | H 2.35 | I 1.8 | L 1.72 | M 2.21 | N 2.29 | P 1.95 | Q 1.26 | R 2.56 | S 1.96 | T 3 | V 2.47 | W 2.47 | Y 3
L13: A 2.17 | C 1.21 | D 2.17 | E 1.71 | F 2.21 | G 2.18 | H 2.12 | I 2.13 | K 2.04 | M 2.03 | N 1.88 | P 2.5 | Q 1.92 | R 1.5 | S 2.52 | T 2.24 | V 1.83 | W 2.31 | Y 2.12
E14: A 1.81 | C 1.48 | D 1.89 | F 1.89 | G 1.57 | H 1.71 | I 2.54 | K 1.47 | L 2.08 | M 2.13 | N 1.54 | P 1.61 | Q 2.06 | R 2.7 | S 1.8 | T 1.43 | V 1.6 | W 1.08 | Y 2.01
F15: A 2.06 | C 1.75 | D 2.51 | E 2.65 | G 1.92 | H 2.14 | I 2.24 | K 1.88 | L 1.06 | M 2.25 | N 2.22 | P 2.42 | Q 2.25 | R 2.7 | S 2.04 | T 2.1 | V 2.56 | W 2.75 | Y 1.63
R16: A 1.28
